Series [1] has as its target T1, ComA (Bacillus subtilis, UniProt P14204 1-214).
T1 sequence: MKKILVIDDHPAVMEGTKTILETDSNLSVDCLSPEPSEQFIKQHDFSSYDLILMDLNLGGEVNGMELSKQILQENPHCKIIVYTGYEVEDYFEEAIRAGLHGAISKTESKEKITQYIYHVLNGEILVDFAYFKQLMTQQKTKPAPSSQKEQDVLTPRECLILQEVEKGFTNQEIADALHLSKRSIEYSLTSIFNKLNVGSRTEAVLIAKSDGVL
In words: EMSA; EMSA: 10 mM HEPES pH 7.6, 2 mM MgCl2, 0.1 mM EDTA, 200 mM KCl, 5 mM DTT, 10% glycerol; 10 ng DNA in 15 ul, 20 min, room temperature. Particulars: protein: recombinant; tags: N-terminal His6 (from expression primer); chain copies: 2; label: 5' biotin on strand 1; blunt.

The target of the next series is ComA;sigma factor sigmaA (Bacillus subtilis;Bacillus subtilis, UniProt P14204;P06224 1-214;1-371, |). In words: EMSA; supershift, lower mobility than PIR; EMSA: 10 mM HEPES pH 7.6, 2 mM MgCl2, 0.1 mM EDTA, 200 mM KCl, 5 mM DTT, 10% glycerol; 10 ng DNA in 15 ul, 20 min, room temperature. Particulars: protein: recombinant;recombinant; tags: N-terminal His6 (from expression primer);N-terminal His6 (from expression primer); chain copies: 2;1; label: 5' biotin on strand 1; blunt. A general note: In EMSA bound probe runs differently from free probe, usually more slowly.

Series [2] deals with T2, ComA;RNA polymerase alpha subunit (Bacillus subtilis;Bacillus subtilis, UniProt P14204;P20429 1-214;1-314, |).
T2 sequence 1: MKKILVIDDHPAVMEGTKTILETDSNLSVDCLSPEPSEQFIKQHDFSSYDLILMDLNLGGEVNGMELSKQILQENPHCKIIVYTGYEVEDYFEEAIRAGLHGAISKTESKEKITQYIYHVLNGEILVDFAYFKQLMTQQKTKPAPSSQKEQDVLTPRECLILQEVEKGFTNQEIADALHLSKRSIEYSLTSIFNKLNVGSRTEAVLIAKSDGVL
T2 sequence 2: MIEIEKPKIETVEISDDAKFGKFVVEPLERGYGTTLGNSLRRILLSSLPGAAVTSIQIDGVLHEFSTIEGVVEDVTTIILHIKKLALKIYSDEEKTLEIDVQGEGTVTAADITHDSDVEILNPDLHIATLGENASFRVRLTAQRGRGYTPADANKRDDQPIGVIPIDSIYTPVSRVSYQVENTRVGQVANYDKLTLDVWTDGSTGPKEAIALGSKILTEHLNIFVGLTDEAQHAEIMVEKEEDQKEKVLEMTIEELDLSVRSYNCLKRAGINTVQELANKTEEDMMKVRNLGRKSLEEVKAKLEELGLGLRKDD
As to the kind of experiment: EMSA; supershift; EMSA: 10 mM HEPES pH 7.6, 2 mM MgCl2, 0.1 mM EDTA, 200 mM KCl, 5 mM DTT, 10% glycerol; 10 ng DNA in 15 ul, 20 min, room temperature. Particulars: protein: recombinant;recombinant; tags: N-terminal His6 (from expression primer);N-terminal His6 (from expression primer); label: 5' biotin on strand 1; blunt.

Series [3] has as its target T1, ComA. As to the kind of experiment: EMSA; complex at 1.2 uM or more; affinity similar to PIR; EMSA: 10 mM HEPES pH 7.6, 2 mM MgCl2, 0.1 mM EDTA, 200 mM KCl, 5 mM DTT, 10% glycerol; 10 ng DNA in 15 ul, 20 min, room temperature. To be noted: protein: recombinant; tags: N-terminal His6 (from expression primer); chain copies: 2; label: 5' biotin on strand 1; blunt.
Series [4] deals with T1, ComA. As to the kind of experiment: EMSA; EMSA: 10 mM HEPES pH 7.6, 2 mM MgCl2, 0.1 mM EDTA, 200 mM KCl, 5 mM DTT, 10% glycerol; 10 ng DNA in 15 ul, 20 min, room temperature. To be noted: protein: recombinant; tags: N-terminal His6 (from expression primer); chain copies: 2; label: 5' biotin on strand 1; blunt. The source holds these as a separate data set.
In series [5] the target is T1, ComA. Described as above. To be noted: protein: recombinant; tags: N-terminal His6 (from expression primer); chain copies: 2; label: 5' biotin on strand 1; blunt. The source holds these as a separate data set.

Sequence of ComA;sigma factor sigmaA (P06224 whole entry, one chain of several): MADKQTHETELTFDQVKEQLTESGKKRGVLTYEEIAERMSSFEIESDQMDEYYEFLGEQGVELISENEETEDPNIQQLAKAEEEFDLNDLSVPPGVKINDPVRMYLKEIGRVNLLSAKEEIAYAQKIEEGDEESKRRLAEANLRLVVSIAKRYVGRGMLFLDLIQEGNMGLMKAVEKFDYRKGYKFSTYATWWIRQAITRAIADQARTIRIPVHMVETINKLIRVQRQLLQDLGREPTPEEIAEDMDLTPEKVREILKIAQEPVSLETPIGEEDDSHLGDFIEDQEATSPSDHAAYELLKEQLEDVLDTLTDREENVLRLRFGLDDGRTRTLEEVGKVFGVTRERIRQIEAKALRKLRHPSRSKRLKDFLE

B1: PDR n10 (dsDNA)
DNA 1: AAACTGGAATCGAAACTTTGCGGCCATTACCATTTGCGGTGATAAAAACATTTTT
DNA 2: AAAAATGTTTTTATCACCGCAAATGGTAATGGCCGCAAAGTTTCGATTCCAGTTT
Regarding B1, the binding result with ComA [1] is “no binding”.

B2: Ppel DR2 only (dsDNA)
DNA 1: CGGCCGGTTTTTTTTTTTGCGGTCTTTGCGGTGGGAGTCTTTAGAAT
DNA 2: ATTCTAAAGACTCCCACCGCAAAGACCGCAAAAAAAAAAACCGGCCG
As for B2, in the series with ComA [1], the binding result was “no binding”.

B3: Ppel DR3 only (dsDNA)
DNA 1: CGGCCGGTTTTTTTTTGGCTGTTCTTTGCGGTGGGATTTTGCAGAAT
DNA 2: ATTCTGCAAAATCCCACCGCAAAGAACAGCCAAAAAAAAACCGGCCG
B3: in the series with ComA [1], the binding result is reported as “no binding”.

B4: PDR n9 (dsDNA)
DNA 1: AAACTGGAATCGAAACTTTGCGGCCATTACCATTGCGGTGATAAAAACATTTTT
DNA 2: AAAAATGTTTTTATCACCGCAATGGTAATGGCCGCAAAGTTTCGATTCCAGTTT
On to B4, for which, in the series with ComA [1], the binding result is “no binding”.

B5: PIR n1 (dsDNA)
DNA 1: ATGTTTAGTGGAAATGATTGCGGCCCGCAAAAAATATTGCTGTAAAT
DNA 2: ATTTACAGCAATATTTTTTGCGGGCCGCAATCATTTCCACTAAACAT
B5: the binding result with ComA [1] is “no binding”.

B6: PDR (perfect direct repeat) (dsDNA)
DNA 1: AAACTGGAATCGAAACTTTGCGGCCATTTTGCGGTGATAAAAACATTTTT
DNA 2: AAAAATGTTTTTATCACCGCAAAATGGCCGCAAAGTTTCGATTCCAGTTT
Take B6: the binding result (with ComA;sigma factor sigmaA; in series [2]; with ComA [3]) was “binds” each time.

B7: PDR ex7 (RE4 T1C) (dsDNA)
DNA 1: AAACTGGAATCGAAACTTTGCGGCCATTCTGCGGTGATAAAAACATTTTT
DNA 2: AAAAATGTTTTTATCACCGCAGAATGGCCGCAAAGTTTCGATTCCAGTTT
For the molecule B7, the binding signal with ComA [4] is around 2 fold reduced affinity.

B8: PDR G3T (dsDNA)
DNA 1: AAACTGGAATCGAAACTTTGCGGCCATTTTTCGGTGATAAAAACATTTTT
DNA 2: AAAAATGTTTTTATCACCGAAAAATGGCCGCAAAGTTTCGATTCCAGTTT
With B8, the binding signal in the series with ComA [5] is around 2 fold reduced affinity.

B9: PDR n1 (dsDNA)
DNA 1: AAACTGGAATCGAAACTTTGCGGCTTGCGGTGATAAAAACATTTTT
DNA 2: AAAAATGTTTTTATCACCGCAAGCCGCAAAGTTTCGATTCCAGTTT
With B9, the binding result with ComA [1] is “no binding”.

B10: Ppel IR-DR core (dsDNA)
DNA 1: GGATTTTGCAGAATGCCGCAATAGGATAGCGGAACATTTTCGGTTCTG
DNA 2: CAGAACCGAAAATGTTCCGCTATCCTATTGCGGCATTCTGCAAAATCC
Turning to B10, the binding result with ComA [1] is “binds”.

B11: PIR n14 (dsDNA)
DNA 1: ATGTTTAGTGGAAATGATTGCGGCATCTCCACATACCCCGCAAAAAATATTGCTGTAAAT
DNA 2: ATTTACAGCAATATTTTTTGCGGGGTATGTGGAGATGCCGCAATCATTTCCACTAAACAT
For the molecule B11, in the series with ComA [1], the binding result is on record as “no binding”.

B12: PIR n8 (dsDNA)
DNA 1: ATGTTTAGTGGAAATGATTGCGGCATCTCCACCGCAAAAAATATTGCTGTAAAT
DNA 2: ATTTACAGCAATATTTTTTGCGGTGGAGATGCCGCAATCATTTCCACTAAACAT
B12: the binding result in the series with ComA [1] was “no binding”.

B13: PIR n2 (dsDNA)
DNA 1: ATGTTTAGTGGAAATGATTGCGGCACCGCAAAAAATATTGCTGTAAAT
DNA 2: ATTTACAGCAATATTTTTTGCGGTGCCGCAATCATTTCCACTAAACAT
Turning to B13, the binding result with ComA [1] is reported as “no binding”.

B14: PIR n6 (dsDNA)
DNA 1: ATGTTTAGTGGAAATGATTGCGGCATCTCCCGCAAAAAATATTGCTGTAAAT
DNA 2: ATTTACAGCAATATTTTTTGCGGGAGATGCCGCAATCATTTCCACTAAACAT
For the molecule B14, in the series with ComA [1], the binding result was “no binding”.

B15: PIR C4A (dsDNA)
DNA 1: ATGTTTAGTGGAAATGATTGCGGCATCCCGAAAAAAATATTGCTGTAAAT
DNA 2: ATTTACAGCAATATTTTTTTCGGGATGCCGCAATCATTTCCACTAAACAT
Regarding B15, in the series with ComA [5], the binding signal is around 2 fold reduced affinity.

B16: PDR n2 (dsDNA)
DNA 1: AAACTGGAATCGAAACTTTGCGGCCTTGCGGTGATAAAAACATTTTT
DNA 2: AAAAATGTTTTTATCACCGCAAGGCCGCAAAGTTTCGATTCCAGTTT
On to B16, for which the binding result with ComA [1] is “no binding”.

B17: PDR n15 (dsDNA)
DNA 1: AAACTGGAATCGAAACTTTGCGGCCATTACCATCTACTTTGCGGTGATAAAAACATTTTT
DNA 2: AAAAATGTTTTTATCACCGCAAAGTAGATGGTAATGGCCGCAAAGTTTCGATTCCAGTTT
Regarding B17, the binding result with ComA [1] is reported as “no binding”.

B18: Ppel DR1 only (dsDNA)
DNA 1: CGGCCTTTTGGTTTTTTTGCGGTCTGGCTGTTGGGAGTCTTTAGAAT
DNA 2: ATTCTAAAGACTCCCAACAGCCAGACCGCAAAAAAACCAAAAGGCCG
B18: in the series with ComA [1], the binding result is on record as “no binding”.

B19: PDR n7 (dsDNA)
DNA 1: AAACTGGAATCGAAACTTTGCGGCCATTACTTGCGGTGATAAAAACATTTTT
DNA 2: AAAAATGTTTTTATCACCGCAAGTAATGGCCGCAAAGTTTCGATTCCAGTTT
On to B19, for which, in the series with ComA [1], the binding result is on record as “no binding”.

B20: PIR n3 (dsDNA)
DNA 1: ATGTTTAGTGGAAATGATTGCGGCATCCGCAAAAAATATTGCTGTAAAT
DNA 2: ATTTACAGCAATATTTTTTGCGGATGCCGCAATCATTTCCACTAAACAT
Turning to B20, the binding result with ComA [1] is recorded as “no binding”.

B21: PDR n3 (dsDNA)
DNA 1: AAACTGGAATCGAAACTTTGCGGCCATTGCGGTGATAAAAACATTTTT
DNA 2: AAAAATGTTTTTATCACCGCAATGGCCGCAAAGTTTCGATTCCAGTTT
Regarding B21, the binding result in the series with ComA [1] was “no binding”.

B22: PIR n10 (dsDNA)
DNA 1: ATGTTTAGTGGAAATGATTGCGGCATCTCCACACCGCAAAAAATATTGCTGTAAAT
DNA 2: ATTTACAGCAATATTTTTTGCGGTGTGGAGATGCCGCAATCATTTCCACTAAACAT
As to B22, in the series with ComA [1], the binding result is recorded as “no binding”.

For the origin of these results see article PMC4797271, “The quorum-sensing regulator ComA from Bacillus subtilis activates transcription using topologically distinct DNA motifs”.
